This data set concerns the molecule itself. Put plainly: size-exclusion chromatography (Superdex 75). The procedure:
Gel filtration was performed at 4° C. using the AKTA FPLC system equipped with a Superdex 75 HR 16/60 column (Amersham Biosciences). The buffer used for gel filtration is comprised of 50 mM Tris-Cl (pH 8.0), 300 mM NaCl, 5% Glycerol, 1 mM DTT. Fractions containing the recombinant protein were concentrated using Amicon concentrator (Millipore) to a final concentration of ca. 5 mg/ml as measured using Bradford assay. Concentrated proteins were stored in −80° C. degree after flash-freeze using liquid nitrogen. Mutant proteins were expressed, purified and stored following the same procedure. The molecular weight and oligomeric state of the protein was estimated based on the standard curve generated by using the standard proteins that include albumin, ovalbumin, chemotrypsinogen, RNase A. The final yield of the recombinant protein was 12-15 mg per liter culture for the wild type the mutant enzyme.
On the technique in general: In gel filtration, larger molecules generally elute earlier.

B1: tDGC mutant R158A (enzyme)
chain: MGSSHHHHHHSSGLVPRGSHMKELEYMAYHDPLTGLPNRRYFFELGNRYLDLAKREGKKVFVLFVDLAGFKAINDTYGHLSGDEVLKTVSKRILDRVARSDVVARYGGDEFTILLYDMKEEYLKSLLERILSTFREPVRVENKHLSVTPNIGVARFPEDGENLEELLKVADMRMYKAKEMKVPYFSLS
notes: Expressed from pET28b(+) with a (His)6 tag; Found as a monomer in solution; also called R158A mutant; mutant tDGC
As for B1, the binding result was “no binding”.
